# According to article PMC9482650, “Quantitative fragmentomics allow affinity mapping of interactomes” (Nature Communications, 2022):
# B1: ATP2B4, P23634 (peptide)
# chain: SSLQSLETSV
# B2: HPV18-E6, P06463 (peptide)
# chain: RLQRRRETQV
# Molecular target: DLG5_1, Q8TDM6
# Assay: holdup assay
# Parameters: key: below the threshold = too weak to quantify, mostly under pKd 3.1 to 4
# Conditions: plain residues with an end cap or a label only (N-terminal biotin on a linker: ttds)
# Chain of DLG5_1, Q8TDM6 (Q8TDM6 617-713): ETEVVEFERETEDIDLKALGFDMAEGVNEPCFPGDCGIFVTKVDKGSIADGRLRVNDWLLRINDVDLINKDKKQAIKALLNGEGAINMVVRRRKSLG
row,Binder,pKd
1,B1,below the threshold
2,B2,below the threshold

# Molecular target: T1, NHERF3_1, Q5T2W1
# T1 sequence (Q5T2W1 4-100, limits assumed, looked up): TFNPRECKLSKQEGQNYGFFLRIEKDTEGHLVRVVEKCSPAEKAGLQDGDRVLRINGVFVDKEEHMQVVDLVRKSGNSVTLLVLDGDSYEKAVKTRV
# Assay: holdup assay
# Parameters: key: below the threshold = too weak to quantify, mostly under pKd 3.1 to 4
# Conditions: plain residues with an end cap or a label only (N-terminal biotin on a linker: ttds)
row,Binder,pKd
1,B1,4.41
2,B2,4.05

# Molecular target: T2, APBA2_2, Q99767
# T2 sequence (Q99767 654-744, limits assumed, looked up): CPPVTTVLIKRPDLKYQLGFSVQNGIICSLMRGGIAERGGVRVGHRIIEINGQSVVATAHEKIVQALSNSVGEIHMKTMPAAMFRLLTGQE
# Assay: holdup assay
# Parameters: key: below the threshold = too weak to quantify, mostly under pKd 3.1 to 4
# Conditions: plain residues with an end cap or a label only (N-terminal biotin on a linker: ttds)
row,Binder,pKd
1,B1,3.59
2,B2,below the threshold

# Molecular target: T3, MPP2, Q14168
# T3 sequence (Q14168 180-250, limits assumed, looked up): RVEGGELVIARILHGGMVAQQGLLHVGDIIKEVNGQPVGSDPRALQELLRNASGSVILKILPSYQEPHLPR
# Assay: holdup assay
# Parameters: key: below the threshold = too weak to quantify, mostly under pKd 3.1 to 4
# Conditions: plain residues with an end cap or a label only (N-terminal biotin on a linker: ttds)
row,Binder,pKd
1,B1,below the threshold
2,B2,below the threshold

# Molecular target: Inadl_2, Q8NI35
# Sequence (Q8NI35 238-335): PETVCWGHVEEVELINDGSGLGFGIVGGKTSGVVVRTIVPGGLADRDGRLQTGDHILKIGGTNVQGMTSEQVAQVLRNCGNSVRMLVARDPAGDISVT
# Assay: holdup assay
# Parameters: key: below the threshold = too weak to quantify, mostly under pKd 3.1 to 4
# Conditions: plain residues with an end cap or a label only (N-terminal biotin on a linker: ttds)
row,Binder,pKd
1,B1,below the threshold
2,B2,below the threshold

# Molecular target: GRASP, Q7Z6J2
# Sequence (Q7Z6J2 96-193): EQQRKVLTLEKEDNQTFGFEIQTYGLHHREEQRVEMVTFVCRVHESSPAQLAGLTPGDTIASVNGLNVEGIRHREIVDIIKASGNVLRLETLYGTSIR
# Assay: holdup assay
# Parameters: key: below the threshold = too weak to quantify, mostly under pKd 3.1 to 4
# Conditions: plain residues with an end cap or a label only (N-terminal biotin on a linker: ttds)
row,Binder,pKd
1,B1,3.6
2,B2,below the threshold

# Molecular target: T4, ARHGAP21, Q5T5U3
# T4 sequence (Q5T5U3 45-169, limits assumed, looked up): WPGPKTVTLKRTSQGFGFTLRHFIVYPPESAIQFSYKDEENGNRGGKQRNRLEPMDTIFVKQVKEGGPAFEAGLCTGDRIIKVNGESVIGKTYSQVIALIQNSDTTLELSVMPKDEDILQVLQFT
# Assay: holdup assay
# Parameters: key: below the threshold = too weak to quantify, mostly under pKd 3.1 to 4
# Conditions: plain residues with an end cap or a label only (N-terminal biotin on a linker: ttds)
row,Binder,pKd
1,B1,below the threshold
2,B2,below the threshold

# Molecular target: DLG2_2, Q15700
# Sequence (Q15700 189-283): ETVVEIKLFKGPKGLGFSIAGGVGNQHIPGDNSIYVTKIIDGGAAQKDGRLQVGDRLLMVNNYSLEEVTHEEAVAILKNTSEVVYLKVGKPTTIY
# Assay: holdup assay
# Parameters: key: below the threshold = too weak to quantify, mostly under pKd 3.1 to 4
# Conditions: plain residues with an end cap or a label only (N-terminal biotin on a linker: ttds)
row,Binder,pKd
1,B1,5.08
2,B2,5.19

# Molecular target: T5, RHPN1, Q8TCX5
# T5 sequence (Q8TCX5 508-602, limits assumed, looked up): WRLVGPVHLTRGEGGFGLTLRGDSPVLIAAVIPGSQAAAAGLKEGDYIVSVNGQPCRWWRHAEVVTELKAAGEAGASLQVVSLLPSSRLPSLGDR
# Assay: holdup assay
# Parameters: key: below the threshold = too weak to quantify, mostly under pKd 3.1 to 4
# Conditions: plain residues with an end cap or a label only (N-terminal biotin on a linker: ttds)
row,Binder,pKd
1,B1,4.58
2,B2,3.63

# Molecular target: LDB3, O75112
# Sequence (O75112 1-94): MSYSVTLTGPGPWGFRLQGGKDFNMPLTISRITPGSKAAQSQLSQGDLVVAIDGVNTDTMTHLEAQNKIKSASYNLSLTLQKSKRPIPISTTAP
# Assay: holdup assay
# Parameters: key: below the threshold = too weak to quantify, mostly under pKd 3.1 to 4
# Conditions: plain residues with an end cap or a label only (N-terminal biotin on a linker: ttds)
row,Binder,pKd
1,B1,below the threshold
2,B2,below the threshold

# Molecular target: GIPC2, Q8TF65
# Sequence (Q8TF65 112-203): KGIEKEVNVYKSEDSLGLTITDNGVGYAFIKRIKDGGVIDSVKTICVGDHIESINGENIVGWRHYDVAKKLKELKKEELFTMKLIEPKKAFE
# Assay: holdup assay
# Parameters: key: below the threshold = too weak to quantify, mostly under pKd 3.1 to 4
# Conditions: plain residues with an end cap or a label only (N-terminal biotin on a linker: ttds)
row,Binder,pKd
1,B1,4.16
2,B2,below the threshold

# Molecular target: DLG1_2, Q12959
# Assay: holdup assay
# Parameters: key: below the threshold = too weak to quantify, mostly under pKd 3.1 to 4
# Conditions: plain residues with an end cap or a label only (N-terminal biotin on a linker: ttds)
row,Binder,pKd
1,B1,5.43
2,B2,5.78

# Molecular target: ARHGEF12, Q9NZN5-2
# Sequence (Q9NZN5 other isoform, or with tags, fused parts or gaps): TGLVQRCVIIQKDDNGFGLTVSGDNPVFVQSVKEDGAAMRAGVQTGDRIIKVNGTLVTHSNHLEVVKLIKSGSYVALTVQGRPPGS
# Assay: holdup assay
# Parameters: key: below the threshold = too weak to quantify, mostly under pKd 3.1 to 4
# Conditions: plain residues with an end cap or a label only (N-terminal biotin on a linker: ttds)
row,Binder,pKd
1,B1,4.4
2,B2,3.91

# Molecular target: Inadl_6, Q8NI35
# Sequence (Q8NI35 1058-1167): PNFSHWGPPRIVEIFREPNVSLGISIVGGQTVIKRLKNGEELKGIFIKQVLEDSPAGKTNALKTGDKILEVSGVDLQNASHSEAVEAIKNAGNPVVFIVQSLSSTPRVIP
# Assay: holdup assay
# Parameters: key: below the threshold = too weak to quantify, mostly under pKd 3.1 to 4
# Conditions: plain residues with an end cap or a label only (N-terminal biotin on a linker: ttds)
row,Binder,pKd
1,B1,below the threshold
2,B2,below the threshold

# Molecular target: T6, LIN7B, Q9HAP6
# T6 sequence (Q9HAP6 88-185, limits assumed, looked up): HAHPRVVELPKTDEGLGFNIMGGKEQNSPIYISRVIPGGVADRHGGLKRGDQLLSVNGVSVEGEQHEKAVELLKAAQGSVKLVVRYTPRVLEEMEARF
# Assay: holdup assay
# Parameters: key: below the threshold = too weak to quantify, mostly under pKd 3.1 to 4
# Conditions: plain residues with an end cap or a label only (N-terminal biotin on a linker: ttds)
row,Binder,pKd
1,B1,4.3
2,B2,3.58

# Molecular target: NHERF4_1, Q86UT5-2
# Sequence (Q86UT5 other isoform, or with tags, fused parts or gaps): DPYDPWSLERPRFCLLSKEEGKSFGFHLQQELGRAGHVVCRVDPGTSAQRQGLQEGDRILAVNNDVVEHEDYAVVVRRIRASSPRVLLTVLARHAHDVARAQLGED
# Assay: holdup assay
# Parameters: key: below the threshold = too weak to quantify, mostly under pKd 3.1 to 4
# Conditions: plain residues with an end cap or a label only (N-terminal biotin on a linker: ttds)
row,Binder,pKd
1,B1,below the threshold
2,B2,below the threshold

# Molecular target: T7, RADIL, Q96JH8
# T7 sequence (Q96JH8 971-1071, limits assumed, looked up): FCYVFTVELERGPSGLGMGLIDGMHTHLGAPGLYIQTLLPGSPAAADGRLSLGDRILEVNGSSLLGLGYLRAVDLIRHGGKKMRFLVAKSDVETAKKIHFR
# Assay: holdup assay
# Parameters: key: below the threshold = too weak to quantify, mostly under pKd 3.1 to 4
# Conditions: plain residues with an end cap or a label only (N-terminal biotin on a linker: ttds)
row,Binder,pKd
1,B1,3.69
2,B2,3.28

# Molecular target: GRID2IP_1, A4D2P6
# Sequence (A4D2P6 1-87): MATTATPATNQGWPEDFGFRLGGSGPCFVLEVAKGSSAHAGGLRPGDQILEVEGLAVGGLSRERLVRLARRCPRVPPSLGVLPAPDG
# Assay: holdup assay
# Parameters: key: below the threshold = too weak to quantify, mostly under pKd 3.1 to 4
# Conditions: plain residues with an end cap or a label only (N-terminal biotin on a linker: ttds)
row,Binder,pKd
1,B1,below the threshold
2,B2,below the threshold

# Molecular target: Inadl_10, Q8NI35
# Sequence (Q8NI35 1673-1763): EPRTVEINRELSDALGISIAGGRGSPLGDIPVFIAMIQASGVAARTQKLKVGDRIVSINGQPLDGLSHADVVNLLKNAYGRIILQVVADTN
# Assay: holdup assay
# Parameters: key: below the threshold = too weak to quantify, mostly under pKd 3.1 to 4
# Conditions: plain residues with an end cap or a label only (N-terminal biotin on a linker: ttds)
row,Binder,pKd
1,B1,below the threshold
2,B2,below the threshold

# Molecular target: PDZRN4_1, Q6ZMN7
# Sequence (Q6ZMN7 213-318): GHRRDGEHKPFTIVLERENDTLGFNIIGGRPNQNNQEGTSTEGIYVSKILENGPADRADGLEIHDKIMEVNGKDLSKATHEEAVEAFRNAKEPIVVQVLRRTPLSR
# Assay: holdup assay
# Parameters: key: below the threshold = too weak to quantify, mostly under pKd 3.1 to 4
# Conditions: plain residues with an end cap or a label only (N-terminal biotin on a linker: ttds)
row,Binder,pKd
1,B1,4.79
2,B2,4.48

# Molecular target: MAGI2_2, Q86UL8
# Sequence (Q86UL8 410-522): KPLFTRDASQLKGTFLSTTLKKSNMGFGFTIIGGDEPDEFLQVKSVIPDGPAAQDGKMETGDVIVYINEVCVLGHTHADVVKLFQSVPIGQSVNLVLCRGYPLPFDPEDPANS
# Assay: holdup assay
# Parameters: key: below the threshold = too weak to quantify, mostly under pKd 3.1 to 4
# Conditions: plain residues with an end cap or a label only (N-terminal biotin on a linker: ttds)
row,Binder,pKd
1,B1,4.49
2,B2,5.16

# Molecular target: Inadl_8, Q8NI35
# Sequence (Q8NI35 1425-1530): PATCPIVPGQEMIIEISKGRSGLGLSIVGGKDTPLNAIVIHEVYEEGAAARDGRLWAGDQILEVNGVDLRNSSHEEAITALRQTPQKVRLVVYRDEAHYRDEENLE
# Assay: holdup assay
# Parameters: key: below the threshold = too weak to quantify, mostly under pKd 3.1 to 4
# Conditions: plain residues with an end cap or a label only (N-terminal biotin on a linker: ttds)
row,Binder,pKd
1,B1,3.54
2,B2,3.32

# Molecular target: DLG1_1, Q12959
# Assay: holdup assay
# Parameters: key: below the threshold = too weak to quantify, mostly under pKd 3.1 to 4
# Conditions: plain residues with an end cap or a label only (N-terminal biotin on a linker: ttds)
row,Binder,pKd
1,B1,5
2,B2,5.26

# Molecular target: PDLIM1, O00151
# Sequence (O00151 1-87): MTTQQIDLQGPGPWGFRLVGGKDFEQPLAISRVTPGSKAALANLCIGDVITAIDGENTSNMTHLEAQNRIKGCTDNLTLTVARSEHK
# Assay: holdup assay
# Parameters: key: below the threshold = too weak to quantify, mostly under pKd 3.1 to 4
# Conditions: plain residues with an end cap or a label only (N-terminal biotin on a linker: ttds)
row,Binder,pKd
1,B1,3.66
2,B2,below the threshold

# Molecular target: T8, NHERF3_3, Q5T2W1
# T8 sequence (Q5T2W1 238-333, limits assumed, looked up): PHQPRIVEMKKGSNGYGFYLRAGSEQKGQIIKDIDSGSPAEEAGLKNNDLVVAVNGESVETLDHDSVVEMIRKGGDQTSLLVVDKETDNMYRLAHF
# Assay: holdup assay
# Parameters: key: below the threshold = too weak to quantify, mostly under pKd 3.1 to 4
# Conditions: plain residues with an end cap or a label only (N-terminal biotin on a linker: ttds)
row,Binder,pKd
1,B1,below the threshold
2,B2,below the threshold

# Molecular target: T9, DFNB31_3, Q9P202
# T9 sequence (Q9P202 811-907, limits assumed, looked up): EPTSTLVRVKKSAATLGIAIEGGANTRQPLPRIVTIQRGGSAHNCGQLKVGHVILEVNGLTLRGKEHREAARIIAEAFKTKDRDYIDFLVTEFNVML
# Assay: holdup assay
# Parameters: key: below the threshold = too weak to quantify, mostly under pKd 3.1 to 4
# Conditions: plain residues with an end cap or a label only (N-terminal biotin on a linker: ttds)
row,Binder,pKd
1,B1,below the threshold
2,B2,below the threshold

# Molecular target: T10, TIAM2, Q8IVF5
# T10 sequence (Q8IVF5 885-986, limits assumed, looked up): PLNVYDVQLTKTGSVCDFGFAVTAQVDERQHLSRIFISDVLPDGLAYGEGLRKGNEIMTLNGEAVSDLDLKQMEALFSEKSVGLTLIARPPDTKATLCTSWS
# Assay: holdup assay
# Parameters: key: below the threshold = too weak to quantify, mostly under pKd 3.1 to 4
# Conditions: plain residues with an end cap or a label only (N-terminal biotin on a linker: ttds)
row,Binder,pKd
1,B1,below the threshold
2,B2,below the threshold
